Test results from patent US20120294865A1 (REGENTS OF THE UNIVERSITY OF MICHIGAN, published 2012).

T1: peptide of SEQ ID NO: 32 (YANNPRVVFNLNTYK) (human)
T1 construct: 15-mer on a peptide microarray (ProImmune)
T1 peptide: YANNPRVVFNLNTYK

T2: peptide of SEQ ID NO: 33 (AIASIPTERYFFNVS) (human)
T2 construct: 15-mer on a peptide microarray (ProImmune)
T2 peptide: AIASIPTERYFFNVS


How the values were obtained:
[1] = molecular target: T1, peptide of SEQ ID NO: 32 …; experiment: peptide microarray, fluorescent secondary antibody
Protocol: (§1) Epitope mapping was performed by incubating monoclonal antibody (mAb) samples with a peptide microarray, followed by incubation with a fluorescent-labelled secondary antibody. After washing, the microarray was scanned in a high-resolution scanning system. The peptide microarray consisted of a set of 15-mer peptides overlapping by 10 residues taken from the human alpha-2 integrin subunit (Genbank accession number AAM34795.1; amino acid residues 1-1133 were used). Peptide arrays, antibody incubations, scanning and data analysis were generated by ProImmune Inc, 4281 Express Lane, Suite L2378, Sarasota, Fla. 34238.

[2] = molecular target: T2, peptide of SEQ ID NO: 33 …; experiment: peptide microarray, fluorescent secondary antibody
Protocol: as §1

Row | binding result [1] | binding result [2] | Binder
1 | binds | binds | Ab 778.17 (antibody, V domains shown, Mouse monoclonal antibody from a hybridoma) VH: QVQLQQPGAELVRPGTSVKLSCKASGYTFASYWMNWVSQRPEQGLEWIGRIDPYDSETHYNQKFKDKAILTVDKSSSTAYIQLNSLTSEDSAVYYCARLGRGPFAYWGQGTLVTVSA VL: DIVMTQTPTSLAVSLGQRATISCRASESVDSYDNSFMYWYQQKPGQPPKLLIYFASNLESGVPARFSGSGSRTDFTLTIDPVEADDAATYYCQQNNEDPYTFGGGTKLEIKR
2 | binds | binds | Ab 770.8 (antibody, V domains shown, Mouse monoclonal antibody from a hybridoma, used as ascites or purified) VH: EVKLEESGTVLARPGASVKMSCKASGYSFTSYWMHWVKQRPGQGLEWIGAFYPGNSEDKYNENFKIKAKLTAVTSVNTVYMELSSLTSEDSAVYYCTRGTTLVAPGFDVWGAGTTVTVSS VL: DIVMTQSPAILSVSPGERVSFSCRASQSIGTSIHWYQQRTNGSPRLLIKYVSESISGIPSRFSGSGSGTDFTLTINSVESEDIADYYCQHSNRWPLTFGAGTKLELKR
